B1: recombinant human TNFβ (Peprotech, Cat. No. 300-01B) (ligand, UniProt P01374 35-205, looked up)
chain: LPGVGLTPSAAQTARQHPKMHLAHSTLKPAAHLIGDPSKQNSLLWRANTDRAFLQDGFSLSNNSLLVPTSGIYFVYSQVVFSGKAYSPKATSSPLYLAHEVQLFSSQYPFHVPLLSSQKMVYPGLQEPWLHSMYHGAAFQLTQGDQLSTHTDGIPHLVLSPSTVFFGAFAL
B2: humanized scFv 17-21-A01-sc01 (CDR graft) (scFv)
scFv: MDIQMTQSPSSLSASVGDRVTITCQASESIGNALAWYQQKPGKAPKLLIYSASTLASGVPSRFSGSGSGTDFTLTISSLQPEDFATYYCQSYYYSSSGSYVAFGGGTKLTVLGGGGGSGGGGSGGGGSGGGGSEVQLVESGGGLVQPGGSLRLSCAASGIDFNKYYFMCWVRQAPGKGLEWIGCINTGSGSTYYATWAKGRFTISRDNSKNTVYLQMNSLRAEDTAVYYCARASGSSSVVYIGVYFSLWGQGTLVTVSS
B3: humanized scFv 17-21-A01-sc03 (CDR graft with disulfide bridge, CDR/DS) (scFv)
scFv: MDIQMTQSPSSLSASVGDRVTITCQASESIGNALAWYQQKPGKAPKLLIYSASTLASGVPSRFSGSGSGTDFTLTISSLQPEDFATYYCQSYYYSSSGSYVAFGCGTKLTVLGGGGGSGGGGSGGGGSGGGGSEVQLVESGGGLVQPGGSLRLSCAASGIDFNKYYFMCWVRQAPGKCLEWIGCINTGSGSTYYATWAKGRFTISRDNSKNTVYLQMNSLRAEDTAVYYCARASGSSSVVYIGVYFSLWGQGTLVTVSS
notes: A disulfide bridge was introduced between residues VL141-VH51; also called 17-21-A01-sc03 (CDR/DS)

Legend:
[1] = biological target: B2; test: competition ELISA: unlabeled TNFβ or TNFα against biotinylated TNFα on coated scFv
Protocol: (§1) For this purpose, the scFvs were coated on a 96-well Maxisorp ELISA plate at a concentration of […]. […] To control precision of the response, the dose-response curves were analyzed in duplicate.

[2] = biological target: B3; test: as above
Protocol: as §1

[3] = biological target: B2; test: competition ELISA: unlabeled TNFβ against biotinylated TNFα on coated scFv; scFv 17-21-A01-sc01
Protocol: as §1

[4] = biological target: B3; test: competition ELISA: unlabeled TNFβ against biotinylated TNFα on coated scFv; scFv 17-21-A01-sc03
Protocol: as §1

[5] = biological target: T1, recombinant human TNFα (Peprotech, Cat. No. 300-01) (human, UniProt P01375 77-233, biotinylated in the inhibition and competition ELISAs; unlabelled elsewhere); test: SPR (MASS-1), TNFα immobilized, scFv 45-1.4 nM
T1 construct: The biotinylated form is kept under this id; also called tumor necrosis factor alpha; TNFαtrimer
Protocol: (§2) In a second step, for the best performing scFvs, Single Injection Cycle Kinetics (SiCK) were measured from a single injection cycle by simultaneously injecting six analyte samples at different concentrations into each of the eight parallel channels in the MASS-1 system. […] The apparent dissociation (kd) and association (kₐ) rate constants and the apparent dissociation equilibrium constant (KD) were calculated with the MASS-1 analysis software (Analyzer, Sierra Sensors) using one-to-one Langmuir binding model and quality of the fits was monitored based on Chi², which is a measure for the quality of the curve fitting. The smaller the value for the Chi² the more accurate is the fitting to the one-to-one Langmuir binding model. For affinity screenings, results were deemed valid if the Chi² was below 10 for the concentration analyzed. In cases where several scFv concentrations were analyzed, results were deemed valid if the average Chi² over all the concentrations tested was below 10.

[6] = biological target: T2, recombinant Cynomolgus monkey TNFα (Sino Biological, Cat. No. 90018-CNAE) (Cynomolgus monkey (Macaca fascicularis), UniProt P79337 77-233); test: SPR (MASS-1), TNFα immobilized, scFv 45-1.4 nM
T2 construct: also called Cyno TNFα; Cynomolgus TNFα
Protocol: as §2

[7] = biological target: T3, Rhesus monkey TNFα (R&D Systems, Cat. No. 1070-RM-025/CF) (Rhesus monkey (Macaca mulatta), UniProt P48094 77-233); test: SPR (MASS-1), TNFα immobilized, scFv 45-1.4 nM
T3 construct: also called Rhesus TNFα; Macaca mulatta TNFα
Protocol: as §2

[8] = biological target: T1, recombinant human TNFα (Peprotech, Cat. …); test: inhibition ELISA, biotinylated TNFα (960 pM) preincubated with scFv, binding to coated TNFRII-Fc
From the text: (§3) For the first inhibition ELISA, the extracellular domain of TNFRI fused to the Fc region of human IgG (R&D Systems, Cat. No. 372-RI) was coated on a 96-well Maxisorp ELISA at a concentration of […]. For the second inhibition ELISA, the extracellular domain of TNFRII fused to the Fc region of human IgG (R&D Systems, Cat. No. 726-R2) was coated at a concentration of […]. All subsequent steps were identical for both assays.

[9] = biological target: T1, recombinant human TNFα (Peprotech, Cat. …); test: cell-based or functional assay
[10] = biological target: T2, recombinant Cynomolgus monkey TNFα …; test: cell-based or functional assay
[11] = biological target: T3, Rhesus monkey TNFα (R&D Systems, Cat. …); test: cell-based or functional assay
[12] = biological target: T1, recombinant human TNFα (Peprotech, Cat. …); test: inhibition ELISA, biotinylated TNFα (960 pM) preincubated with scFv, binding to coated TNFRI-Fc
From the text: as §3

[13] = biological target: T2, recombinant Cynomolgus monkey TNFα …; test: SPR
Protocol: as §2

[14] = biological target: T3, Rhesus monkey TNFα (R&D Systems, Cat. …); test: SPR
Protocol: as §2

[15] = biological target: B1; test: competition ELISA: unlabeled TNFβ against biotinylated TNFα on coated scFv
Protocol: as §1

T2 sequence (P79337 77-233 limits assumed): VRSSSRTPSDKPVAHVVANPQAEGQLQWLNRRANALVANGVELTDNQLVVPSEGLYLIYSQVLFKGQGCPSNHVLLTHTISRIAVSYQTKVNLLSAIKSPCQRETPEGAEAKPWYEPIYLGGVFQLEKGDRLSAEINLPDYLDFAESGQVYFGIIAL
T1 sequence (P01375 77-233 limits assumed): as the sequence (P79337 77-233 limits assumed) above, with V37L, T44R, N72T, L138R counted along it
T3 sequence (P48094 77-233 limits assumed): as the sequence (P79337 77-233 limits assumed) above, with V37L counted along it

| Binder | Kd [5] | koff [5] | kon [5] | IC50 [8] | rel. IC50 (IC50 infliximab / IC50 scFv, ng/mL) [8] | rel. IC90 (IC90 infliximab / IC90 scFv, ng/mL) [8] | Potency, rel. IC50 in L929 assay (IC50 infliximab / IC50 scFv, ng/mL) [9] | Potency, rel. IC90 in L929 assay (IC90 infliximab / IC90 scFv, ng/mL) [9] | Species-specificity IC50, L929 assay with human TNFα [9] | Species-specificity IC50, L929 assay with Cynomolgus TNFα [10] | Species-specificity IC50, L929 assay with Rhesus TNFα [11] | IC50 [12] | rel. IC50 (IC50 infliximab / IC50 scFv, ng/mL) [12] | rel. IC90 (IC90 infliximab / IC90 scFv, ng/mL) [12] | binding result [15] | further results |
| --- | --- | --- | --- | --- | --- | --- | --- | --- | --- | --- | --- | --- | --- | --- | --- | --- |
| B1 |  |  |  |  |  |  |  |  |  |  |  |  |  |  |  | Target selectivity, rel. IC50 of TNFβ vs TNFα [1]: > 10000 fold; Target selectivity, rel. IC50 of TNFβ vs TNFα [2]: > 10000 fold; IC50 [3]: > 1250 µg/mL; IC50 [4]: > 1250 µg/mL |
| B2 | 0.21 nM | 0.00014 s⁻¹ | 660000 M⁻¹ s⁻¹ | 0.0541 µg/mL | 2.2 fold | 0.8 fold | 9.2 fold | 12.2 fold | 0.0014 µg/mL | 0.193 µg/mL | 0.111 µg/mL | 0.0316 µg/mL | 2.9 fold | 2 fold | no binding (tested: 1250 µg/mL) | Kd [6]: 2.4 nM; koff [6]: 0.0016 s⁻¹; kon [6]: 650000 M⁻¹ s⁻¹; Kd [7]: 2.5 nM; koff [7]: 0.0019 s⁻¹; kon [7]: 760000 M⁻¹ s⁻¹; fold difference in affinity against human TNFα [13]: ~5 fold; fold difference in affinity against human TNFα [14]: ~5 fold |
| B3 | 0.27 nM | 0.00011 s⁻¹ | 400000 M⁻¹ s⁻¹ | 0.0467 µg/mL | 2.6 fold | 0.8 fold | 6.5 fold | 6.4 fold | 0.0012 µg/mL | 0.0506 µg/mL | 0.0542 µg/mL | 0.0502 µg/mL | 1.8 fold | 1.8 fold | no binding (tested: 1250 µg/mL) |  |

— US20190153089A1 (NUMAB INNOVATION, published 2019)
